Test [1] deals with SurR oxidized with diamide or colloidal S^0 (Pyrococcus furiosus). Nature of the test: SEC. (SEC sorts molecules by how far they enter the pores of the column.)
For test [2], the target named is AxxA-SurR (SurR C23A C26A variant) (Pyrococcus furiosus). Nature of the test: crystal structure.
Test [3] has the same target. Nature of the test: SEC.

Regarding “SurR oxidized with diamide or colloidal S^0 (natural protein)”, the stoichiometry N (usually a count of units in the complex or per binding partner) in test [1] was 2. Take “AxxA-SurR (SurR C23A C26A variant) (natural protein)”: the stoichiometry N in test [2] and in test [3] was 2 each time.

The values are drawn from article PMC2975895.
